# Read-outs that look alike come from different tables or passages of the source.
# Experiments:
# [1] = biological target: T1, mammalian expressed RBD (mRBD) of SARS-CoV-2 spike (SARS-CoV-2, UniProt P0DTC2 319-541); assay: SPR
# [2] = biological target: T1, mammalian expressed RBD (mRBD) of …; assay: SPR; remark: listed apart in the source
Binder,koff [1] [s⁻¹],koff [2] [s⁻¹]
DKEWILQKIYEAMRLLDELADAEASMRVSDAIYEFMKK (designed binder) [SIH-14],0.00028,
DKEWILQKIYEEMRLLDELADAEASMRVSDEIYEFMKK (designed binder) [SIH-15],,0.00025
